Measurements: article PMC4092090, “Investigation of a MMP-2 Activity-Dependent Anchoring Probe for Nuclear Imaging of Cancer” (PLoS ONE, 2014)
“Also recorded” adds a separate entry of the source.

Legend:
[1] = type: physicochemical; conditions: pH 7.4
Method: The experimental determination of probe partition coefficients (log P values) was performed in 1-octanol and 0.02 M phosphate buffer pH 7.4 where the two phases were pre-saturated with each other. 1-Octanol (200 µl) and phosphate buffer (200 µl) were pipetted into LoBind Eppendorf tubes containing 0.37 MBq of probes. The tube was vortexed for 10 seconds, and centrifuged (5 min, 4000×g). Aliquots (50 µl) from the 1-octanol and buffer phases were transferred into two test tubes for radioactivity counting with a NaI well-type scintillation counter (1470 WIZARD, Perkin Elmer, Kanagawa, Japan). The partition coefficient was calculated using the equation P = (counts/µl in 1-octanol)/(counts/µl in buffer).

[2] = tested on: HT1080 tumor bearing mice; set-up: species or system mouse (Balb/c nu-nu); conditions: mouse, in vivo, iv
Method: (§1) […]3000 and […] (37 kBq, 100 μl in PBS including 3% bovine serum albumin and 0.1% Tween 80) were injected intravenously into the tail vein of tumor bearing mice. The mice were sacrificed at various post-injection time points (n = 3 for each time point), and the organs of interest including the tumor tissues were collected for determination of the weights. The radioactivity of each sample was measured with a NaI well-type scintillation counter. From fitting to the two phase decay curves for blood radioactivity data analyzed by GraphPad Prism 6 (GraphPad Software, San Diego, CA), whole body pharmacokinetic parameters such as blood half-lives, distribution volume, mean residence time and total clearance were calculated for each of the probes and the values compared. Simple pharmacokinetic analysis using a single tissue compartment model was applied to the biodistribution data to calculate rate constants (K1 and k2) for radioactivity transfer from blood to tumor and clearance from tumor to blood by PMOD version 3.2. In addition, MDAP3000 (7.4 MBq in 200 μl) was injected intravenously into the tail vein of tumor bearing mice for metabolite analysis in tumors excised 3, 6, and 24 hr post injection (n = 2 each). Tumor homogenates were prepared on ice and insoluble material was removed by centrifugation after methanol treatment. The resulting supernatant was analyzed by RP-HPLC.

[3] = tested on: HT1080 tumor xenograft; set-up: species or system mouse (Balb/c nu-nu); conditions: mouse, in vivo, iv
Method: as §1

[4] = tested on: HT1080 human fibrosarcoma cells; assay: Cellular uptake study; type: cell-based; conditions: 5×10^5 HT1080 cells, FBS-free DMEM, 37 kBq probe, 30 min incubation, radioactivity counting, Fig. 3a
Method: HT1080 human fibrosarcoma cells were purchased from American Type Culture Collection (ATCC, Manassas, VA USA) and cultured in DMEM with low glucose (Invitrogen), 10% fetal bovine serum (FBS), and penicillin/streptomycin. MMP-2 cDNA was cloned into the pENTR vector (Invitrogen) and inserted into the pLenti6 vector (Invitrogen) as previously described, [7]. […] Protein quantitation was performed by BCA protein assay (Thermo Fisher Scientific, Inc. Rockford, IL USA). The cellular uptake study of MDAP3000 pretreated with activated MMP-2 (63 nM) in the presence or absence of GM6001 (100 µM) was performed as described above.

[5] = tested on: HT1080 tumor bearing mice; set-up: species or system mouse (Balb/c nu-nu); conditions: mouse, in vivo, iv; remark: listed apart in the source
Method: Female Balb/c nu-nu mice (5 weeks old, Japan SLC, Inc., Shizuoka, Japan) were housed under a 12-h light/12-h dark cycle and given free access to food and water. HT1080 cells (5×10^6 cells/100 μl PBS (-)/mouse) were subcutaneously inoculated into the right hind leg of Balb/c nu-nu mice. Animals were used for experiments two weeks after inoculation when the mean tumor size was 5.7±2.2 mm along the major axis. […]3000 and […] (37 kBq, 100 μl in PBS including 3% bovine serum albumin and 0.1% Tween 80) were injected intravenously into the tail vein of tumor bearing mice. The mice were sacrificed at various post-injection time points (n = 3 for each time point), and the organs of interest including the tumor tissues were collected for determination of the weights. The radioactivity of each sample was measured with a NaI well-type scintillation counter. From fitting to the two phase decay curves for blood radioactivity data analyzed by GraphPad Prism 6 (GraphPad Software, San Diego, CA), whole body pharmacokinetic parameters such as blood half-lives, distribution volume, mean residence time and total clearance were calculated for each of the probes and the values compared. Simple pharmacokinetic analysis using a single tissue compartment model was applied to the biodistribution data to calculate rate constants (K1 and k2) for radioactivity transfer from blood to tumor and clearance from tumor to blood by PMOD version 3.2. In addition, MDAP3000 (7.4 MBq in 200 μl) was injected intravenously into the tail vein of tumor bearing mice for metabolite analysis in tumors excised 3, 6, and 24 hr post injection (n = 2 each). Tumor homogenates were prepared on ice and insoluble material was removed by centrifugation after methanol treatment. The resulting supernatant was analyzed by RP-HPLC.

[6] = target: T1, Human-recombinant MMP-2 protein (Homo sapiens, UniProt P08253); assay: Cleavage assay; type: biochemical; conditions: activated MMP-2 1–5 nM, 370 kBq probe, 37°C, 2 hr, pH 7.5 assay buffer, RP-HPLC, Fig. 3b
T1 construct: purchased R & D Systems, Inc. 902-MP-010
T1 sequence (P08253 110-660): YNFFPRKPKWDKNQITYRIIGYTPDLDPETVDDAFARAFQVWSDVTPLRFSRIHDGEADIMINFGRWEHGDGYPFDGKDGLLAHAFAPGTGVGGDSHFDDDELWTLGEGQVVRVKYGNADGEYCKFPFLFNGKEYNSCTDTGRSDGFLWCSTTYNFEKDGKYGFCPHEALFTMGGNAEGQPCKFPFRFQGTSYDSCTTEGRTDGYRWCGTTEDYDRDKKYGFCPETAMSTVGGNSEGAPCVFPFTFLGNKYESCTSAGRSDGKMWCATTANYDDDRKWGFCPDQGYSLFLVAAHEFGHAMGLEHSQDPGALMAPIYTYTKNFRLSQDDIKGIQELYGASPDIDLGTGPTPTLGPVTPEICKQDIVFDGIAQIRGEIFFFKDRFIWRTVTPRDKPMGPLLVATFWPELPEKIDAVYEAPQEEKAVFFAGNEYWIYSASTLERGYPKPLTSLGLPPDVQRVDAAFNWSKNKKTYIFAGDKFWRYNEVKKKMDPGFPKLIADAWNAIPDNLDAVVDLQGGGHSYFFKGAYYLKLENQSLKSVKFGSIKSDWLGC
Method: Human-recombinant MMP-2 protein (902-MP-010, R & D Systems, Inc., Minneapolis, MN USA) was activated with p-aminophenylmercuric acetate (1 mM) in assay buffer (50 mM Tris-HCl, 150 mM NaCl, 10 mM CaCl2, 5 µM ZnCl2, 0.02% Brij 35, pH 7.5). MDAP1000, MDAP3000, and MDAP5000 (370 kBq) were incubated at 37°C for 2 hr with activated MMP-2 (1–5 nM) and a MMP inhibitor (0 or 100 µM, GM6001, Merck KGaA, Darmstadt, Germany). The reaction was quenched by addition of methanol, and the percentage of cleaved peptide was estimated by RP-HPLC.

Substance: Palmitoyl-Dap(p-SCN-Bn-DTPA-^111In)-10-Adc-Gly-Pro-Leu-Gly-OH [MDAPCV]
- log P (partition coefficient) [1]: 0.29±0.07
- Blood half-life, Fast [2]: 4.17 h
- Clearance (total clearance) [2]: 0.0025 mL/min
- Distribution volume [2]: 2.16 mL
- Mean residence time [2]: 860 min
- K1, rate constant for transfer from blood to tumor, Mean [3]: 0.0022 mL/g/min
- Cellular accumulation (radioactivity in tumor cells) [4]: high accumulation group
- Blood clearance (in words) [5]: slow blood clearance
- T/B ratios over the experimental period [5]: less than 0.3

Substance: Palmitoyl-Dap(p-SCN-Bn-DTPA-^111In)-10-Adc-Gly-Pro-Leu-Gly-Val-Arg-Gly-Lys(ivDde)-PEG5000 [MDAP5000]
- log P (partition coefficient) [1]: −1.04±0.16
- Cleavage by MMP-2 [6]: concentration-dependent manner; also recorded: rather low
- Cellular accumulation (radioactivity in tumor cells) [4]: significantly lower radioactivity
